Reference: patent US20160376333A1 (University of Washington, published 2016)
Substitutions are numbered along the chain they refer to.

T1: Epstein-Barr virus BHRF1 a.a. 1-161 with C-terminal avi-6his tag (Epstein-Barr virus)
T1 construct: also called EBV BHRF1; BHRF1-biotin
T1 chain: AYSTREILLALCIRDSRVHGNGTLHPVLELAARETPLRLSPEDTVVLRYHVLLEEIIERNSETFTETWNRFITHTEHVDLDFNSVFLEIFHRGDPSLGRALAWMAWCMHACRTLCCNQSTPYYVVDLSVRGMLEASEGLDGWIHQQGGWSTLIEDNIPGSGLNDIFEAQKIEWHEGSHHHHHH

B1: X-CDP08 (designed binder)
chain: ADPKKVLDKAKDRAENRVRKLKKELEKLYKEARKLDLTQEQRDRIINAAIAAMIAAFGDIFHAIMEAKEEARKLKKAGLVNSQQLDELKRRLDELDEEAAQRAEKLGKEFRLKFEY
B2: X-CDP06 (designed binder)
chain: B1 chain with K20E, E24K, D43N, R44K, I50M, M65Q, R72K, R111N
B3: X-CDP01 (designed binder)
chain: ADPKKVLDKAKDQAENRVRELKQKLEELYKEARKLDLTQEMRRELQARYIAAMLAAAGDIMEAIQQAKNEADKLKKAGLVNSQQLDELKRRLEELAKEAARKAEDYGREFQLKLEY
B4: X-CDP10 (designed binder)
chain: ADPKKVLDKAKDQAENRVRELKQKLEELYKEARKLDLTQEMRRELRERYIAAMLAAAGDLWYAITQAKREADKLKKAGLVNSQQLDELKRRLEELLEEAARKAEDYGEEFRLKLEY
B5: X-CDP11 (designed binder)
chain: B4 chain with E47D, A57I, W61F, Y62N, T65Q, Q66W, R69Q, L96A, R111K
B6: X-CDP02 (designed binder)
chain: B3 chain with R43K, Q46V, M61V, E62Q, Q66D, E104T
B7: X-CDP04 (designed binder)
chain: ADPKKVLDKAKDQAENRVRELKQKLEELYKEARKLDLTQEDRKRLLLQYIAAMLAAIGDLENAIRWAKREADKLKKAGLVNSQQLDELKRRLEELAKEAAEKAADYGEEFNLKLEY
B8: X-CDP05 (designed binder)
chain: ADPKKVLDKAKDQAENRVRELKQKLEELYKEARKLDLTQEMRRQLRDQYIAAMLAAIGDLLNAIMQAKREADKLKKAGLVNSQQLDELKRRLEELEEEAAQKAADYGQEFLLKLEY
B9: X-CDP03 (designed binder)
chain: ADPKKVLDKAKDQAENRVRELKQKLEELYKEARKLDLTQEMRRELRNRAIAAILQAIGDLLNAIQQAKDEADKLKKAGLVNSQQLDELKRRLEELQNEAAEKAADYGEEFWLKLEY
B10: human Bcl-B a.a. 11-175 with C-terminal avi-6his tag (other)
chain: ADPLRERTELLLADYLGYCAREPGTPEPAPSTPEAAVLRSAAARLRQIHRSFFSAYLGYPGNRFELVALMADSVLSDSPGPTWGRVVTLVTFAGTLLERGPLVTARWKKWGFQPRLKEQEGDVARDCQRLVALLSSRLMGQHRAWLQAQGGWDGFCHFFRTPFPGLNDIFEAQKIEWHEGSHHHHHH
notes: also called BCL2L10
B11: human Bcl-XL a.a. 1-205 with C-terminal avi-6his tag (other)
chain: SQSNRELVVDFLSYKLSQKGYSWSQFSDVEENRTEAPEGTESEMETPSAINGNPSWHLADSPAVNGATGHSSSLDAREVIPMAAVKQALREAGDEFELRYRRAFSDLTSQLHITPGTAYQSFEQVVNELFRDGVNWGRIVAFFSFGGALCVESVDKEMQVLVSRIAAWMATYLNDHLEPWIQENGGWDTFVELYGNNAAAESRKGLNDIFEAQKIEWHEGSHHHHHH
notes: also called BCL2L1
B12: Index 03 (designed binder)
chain: GLDHDKIVDEARKKMEKKIREAKDKAKEFVLKALDNNHDLKQFRELAHKWIALMLMAIGDAFNIMMEAKRKAEWLREQGQQDEDKAEEAKEKLDKAFKEAAERFEEIAKIYGKQAKNG
B13: Index 01 (designed binder)
chain: GKRLEETVEETERRLREALREVYLLILLLAEEAKKKDLKEQNRHEYVFKWIAFMLMAIGDIFNIAEESKRRLDLFAKWGLHDRNKIDEAKKKIDKLALEAIERAKKYGDWFLNELDKG
B14: Index 02 (designed binder)
chain: GKSLLGIALEALEEAKRDLEKAKKQMEEMLKKKWKFDTTRDLKARASAEWIAAALKAIGDRFNAKLLIELGLDELFNKGLITQDIKEDIKRRAEEIFEKIERLIKQAIKDKDRFEKLG
B15: Index 32 (designed binder)
chain: GGDENKLKDYVKDEIERGLNEIEDLARKIEQLARRFFPKDEERMKFTMWWIAAALMAIGDIFNAKEYARERAEEIRRKGLRREEEARRIEKFIEEEAEKAAKKAAKLGDHLAEELFRG
B16: Index 33 (designed binder)
chain: GKQWQEAFEEARRRIEEKAREFEDRAKKEALLHLFFIPHDKEIADNSKKWIAWALMLIGDIFNLEEEAAERARRHVKRGEISEDDAKQIRKRLQEQAKRAAWWMRYWGEESAKFAFIG
B17: Index 37 (designed binder)
chain: GDFWLKAIEIAGGRMLERARESWYRALYFILMVKLFYPSDDLRRIFTLRWIAESLKLIGDAFNLFELARELLELYYKYGWITLEKALKALWILLKLEEIFSKASKDLGERLAEEIERG
B18: Index 31 (designed binder)
chain: GDQADKIKDKIKDEAKKKADEFKKRLEQFREYLEKVYSDDLKEIYLTIFWIALALMLIGDAFNEKMLLEWEFKERKKRNLRHEEELKEEKKKREEAEKALEWASKYASQVGKEAAEEG
B19: Index 35 (designed binder)
chain: GGDGVKELEELEKRKDEKKNKAEDRIKKFKDEAKYADDRTEDKEKLAHRWIALALDIIGDAFNLKEEARRRFLRHKFRGELDDSKKEYAEKEMKRFEDDVEKDAEELAQKAKEAFKEG
B20: Index 34 (designed binder)
chain: GKFKKLFENYAELFARWVADKGKKLAEELREKAEKGLKLQKLWLIFTMIWIAIMLMSIGDAFNLALLAELWVQAAKNYGWLRDNEADEAEDRVRKFADEASRRALEKGLEALRKILEG
B21: Index 36 (designed binder)
chain: GYTKEWIRDRAKEELDRFADEAKDKADKIRDDFEKRDDKNQIAAELTKKWIAAELEAIGDAFNRAEEAKERLKKLLKLGLTRKEEAEEAAEKLEKLEKEASEKLSKIAHEVSKHDDQG
B22: Index 29 (designed binder)
chain: GEVAKDLAKLAIDLAKKLMLLFWWFFELFKLFAKFTDEWQEWKARGTAFWIALSLAAIGDFFNARRRAELQAREGKQKGLTTEEKEKRWREHLKEAWEKLEKISRLAFLFAQEAENQG
B23: Index 30 (designed binder)
chain: GSRWFDAEDKMRERKDRAILQLLFMLWIIFYILWYGDDTEEAKRKAMAAWIALALIGIGDIFNAEAEFLEELERAIKQGQVSDQLKEELLKRMEDDKRDLEKRLYEFLLKALLQWMQG

biological target: B11; assay: initial BLI screening (column 'Binds target?')

Binder | binding result
B1 | binds
B2 | binds
B3 | binds
B4 | binds
B5 | binds
B6 | binds
B7 | binds
B8 | binds
B9 | binds

biological target: T2, Bim-BH3 motif fused to the C-terminus of maltose-binding protein (MBP) (human, UniProt O43521 141-166); assay: BLI, biotinylated target on streptavidin sensor, MBP-Bim-BH3 in solution
T2 construct: domain: Bim-BH3 motif; also called MBP-Bim-BH3
T2 sequence (O43521 141-166 limits assumed): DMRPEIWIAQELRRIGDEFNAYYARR

Binder | Kd [nM]
B10 | 7
B11 | 1.56

Biological target: T1, Epstein-Barr virus BHRF1 a.a. 1-161 …
Assay: yeast surface display; BHRF1 titrated on clonal yeast showing the design, fluorescence by flow cytometry (apparent KD)

Binder | Kd [nM]
B12 | 160
B13 | 39
B14 | 110

Biological target: T1, Epstein-Barr virus BHRF1 a.a. 1-161 …
Assay: yeast display library, FACS sort at 100 nM BHRF1, deep sequencing

Binder | Log2 enrichment ratio [log2]
B15 | -2
B16 | -4.18
B12 | 2.52
B13 | 4.02
B17 | -3.13
B18 | -3.55
B19 | -3.51
B14 | 3.92
B20 | -3.41
B21 | -3.6
B22 | -1.66
B23 | -2.58

Biological target: T1, Epstein-Barr virus BHRF1 a.a. 1-161 …
Assay: yeast display library, FACS sort at 400 nM BHRF1, deep sequencing

Binder | Log2 enrichment ratio [log2]
B15 | -2.56
B16 | -3.85
B12 | 3.17
B13 | 3.54
B17 | -2.14
B18 | -4.21
B19 | -3.29
B14 | 3.43
B20 | -2.21
B21 | -3.65
B22 | -2.43
B23 | -4.1
